{
  "source": "paper PMC4190666",
  "target": "TAB1 (full length, 60-kDa isoform) (human (endogenous in primary CD4+ T cells)) (UniProt Q15750)",
  "sequence (Q15750 whole entry, canonical isoform)": "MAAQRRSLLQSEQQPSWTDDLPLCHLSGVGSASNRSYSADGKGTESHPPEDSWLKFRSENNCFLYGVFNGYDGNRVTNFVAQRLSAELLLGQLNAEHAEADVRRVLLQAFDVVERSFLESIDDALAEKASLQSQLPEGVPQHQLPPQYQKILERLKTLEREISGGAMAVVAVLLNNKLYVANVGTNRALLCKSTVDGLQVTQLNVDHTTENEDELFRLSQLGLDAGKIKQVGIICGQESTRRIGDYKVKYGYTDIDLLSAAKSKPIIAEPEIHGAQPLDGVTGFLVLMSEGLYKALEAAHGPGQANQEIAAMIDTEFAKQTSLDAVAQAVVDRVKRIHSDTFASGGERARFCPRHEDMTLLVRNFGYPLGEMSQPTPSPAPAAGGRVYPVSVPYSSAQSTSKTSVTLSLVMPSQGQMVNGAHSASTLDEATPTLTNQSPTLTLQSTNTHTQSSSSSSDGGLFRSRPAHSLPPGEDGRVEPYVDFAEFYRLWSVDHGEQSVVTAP",
  "assay": "co-IP",
  "data": [
    {"substance": "p38 MAP kinase (total p38) (from UniProt Q16539 1-360) (enzyme)", "values": [
      {"measurement": "fold increase of p38 in TAB1 immunoprecipitates with A-769662 over DMSO control", "result": "2.5 to 3", "unit": "fold"}
    ]}
  ]
}
